The text below walks through data of article PMC12109740, “Modulation of Kv Channel Gating by Light-Controlled Membrane Thickness” (Biomolecules, 2025).

The data set concerns the molecule itself. The data set can be described thus: SEC; Superdex 200 Increase 10/300 GL, 100 mM KCl, 25 mM Tris pH 8.0, in detergent (DM by the methods, DDM by the results); peak at 11 mL.

B1: KvAP wild type (voltage-gated potassium channel from Aeropyrum pernix) (natural protein)
chain: GGRVRNIGDVMEHPLVELGVSYAALLSVIVVVVEYTMQLSGEYLVRLYLVDLILVIILWADYAYRAYKSGDPAGYVKKTLYEIPALVPAGLLALIEGHLAGLGLFRLVRLLRFLRILLIISRGSKFLSAIADAADKIRFYHLFGAVMLTVLYGAFAIYIVEYPDPNSSIKSVFDALWWAVVTATTVGYGDVVPATPIGKVIGIAVMLTGISALTLLIGTVSNMFQKILVGEPEPSCSPAKLAEMVSSMSEEEFEEFVRTLKNLRRLENSMK
notes: KvAP, voltage-gated potassium channel of Aeropyrum pernix, wild type; also called Kv channel from Aeropyrum pernix; source: E. coli C43 (DE3), pET21a-derived vector, solubilised in detergent, purified (Ni-NTA, SEC on Superdex 200 Increase)
As a reminder, the stoichiometry N is a count of units in the complex or per binding partner. As to B1, the “stoichiometry N” value is 4.
